Measured values published in PMC11154708.

Molecular target: Rad51 (S. cerevisiae) (UniProt P25454)
Assay: co-IP; Rad51 immunoprecipitated with anti-Rad51 antibody from yeast lysates (Rad51 overexpressed from a plasmid), IP fraction blotted for Hsp82 and Aha1; strains WT, hda1Δ, aha1Δ and hsp82 mutant strains (K27Q, K27R, K274Q, K274R, K178R); rad51Δ as negative control; blots quantified with Image J

Sequence of UniProt P25454 (P25454 whole entry): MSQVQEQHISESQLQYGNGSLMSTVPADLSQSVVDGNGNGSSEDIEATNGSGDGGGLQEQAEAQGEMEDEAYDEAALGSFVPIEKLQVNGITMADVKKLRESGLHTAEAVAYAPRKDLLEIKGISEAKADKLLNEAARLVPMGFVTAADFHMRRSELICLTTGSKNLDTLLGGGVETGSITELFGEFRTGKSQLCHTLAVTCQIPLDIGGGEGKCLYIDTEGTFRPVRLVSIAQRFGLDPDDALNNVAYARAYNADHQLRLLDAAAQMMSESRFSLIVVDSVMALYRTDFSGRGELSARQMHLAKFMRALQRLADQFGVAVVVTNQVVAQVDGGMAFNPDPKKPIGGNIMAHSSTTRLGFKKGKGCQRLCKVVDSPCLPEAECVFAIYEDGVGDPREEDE

fold reduction of association in the aha1Δ strain against the WT strain: 2 fold | fold reduction of association in the hda1Δ strain against the WT strain: 5 fold
Substance: Hsp82 (WT) (from UniProt P02829 1-709) (natural protein)
